Data taken from patent US5885821.

How the values were obtained:
[1] = target: chimeric protein βGal-117S4HPPH34 (E. coli; human)
[2] = target: chimeric protein βGal-139S(FM)PPH84 (E. coli; human)

excision efficiency of hPTH(1-34) from the chimeric protein [1]: > 90% | recovery rate of hPTH(1-84) excised from the chimeric protein (HPLC) [2]: 75%
Substance: Kex2-660 (enzyme)
